Here are results for three molecules from patent publication US20250215092A1 (ZHEJIANG NANOMAB TECHNOLOGY CENTER, published 2025).

For assay [1], the target named is T1, EGFR-D1D2 (L25-A310, P00533-1 (uniprot)) his tag antigen (human, UniProt P00533 25-310).
T1 construct: range 25-310; also called I+II domain protein; EGFR-D1D2 protein; not shown: His tag
The assay is described as follows: ELISA: EGFR-D1D2 his tag antigen coated at 0.5 µg/mL, antibody at 2000, 200, 20, 2 nM, HRP goat anti-human IgG Fc, OD450. On the procedure:
(§1) (2) Protein Binding Epitope Analysis: ELISA was used to determine the binding of VHH-IgG4 antibody to each domain of EGFR extracellular protein. Briefly, EGFR his tag protein, and EGFR-V3-his tag antigen protein were diluted to 1 μg/mL, EGFR-D1D2 (L25-A310, P00533-1 (uniprot)), and EGFR-D4 (F481-S645, P00533-1 (uniprot)) his tag antigen were diluted to 0.5 μg/mL, and each well of an ELISA plate was coated with […] antigen and incubated overnight at 4° C. The next day, the plates were washed twice with PBST (added with 0.5% TWEEN-20), then blocked with 3% BSA at 37° C. for 1.5 h, and then washed twice with PBST. Then, the antibody to be tested was diluted to 50 nM, 5 nM, 0.5 nM, 0.05 nM, and added to the wells coated with EGFR his tag protein or EGFR-V3-his tag antigen at 100 µL/well, respectively. The antibody was diluted to 2000 nM, 200 nM, 20 nM, 2 nM, and added to the wells coated with EGFR his tag protein or EGFR-V3-his tag antigen at 100 µL/well, respectively. The ELISA plates were incubated at 37° C. for 1 h. The plates were then washed three times with PBST, and then 100 μL HRP labeled Goat anti human IgG Fc antibody (1:10000, Bethyl) was added into each well, and incubated at 37° C. for another 40 min. After washing the plates four times with PBST, 100 μL of TMB substrate was added to each well, and the reaction was allowed to proceed for 3-5 min. The reaction was stopped by adding 100 μL of 3N hydrochloric acid per well. After stopping the reaction, the optical density at 450/650 nm was measured using a Tecan microplate reader.

Assay [2] has as its target T2, EGFR on SKOV3 and Aspc-1 tumor cells (human, UniProt P00533).
T2 construct: endogenous, on the cell surface; the cell line is named under assay; also called tumor cell EGFR
The assay is described as follows: flow cytometry on SKOV3 tumor cells, anti-human IgG PE, MFI, curve fit; unit from the concentration axis and paragraph 62 [table]. As for the experimental part: (§2) Two kinds of tumor cells, SKOV3 and Aspc-1, expressing EGFR were respectively plated in 96 well plates, with 3×10⁵ cells per well, and then the tumor cells were incubated with gradient diluted VHH-IgG4 antibody. After incubation on ice for half an hour, anti human IgG PE (Jackson Immuno Research, Code: 109-117-008, Lot:145501) was added for incubation, and then CytoFLEX flow cytometry was used for detection. The EC50 of the antibody was calculated by curve fitting.

Assay [3] concerns the target T3, human EGFR.His antigen (Acro, Cat #EGR-H522a) (human, UniProt P00533 25-645).
T3 construct: extracellular domain; Bought protein; also called EGFR his tag protein; full-length EGFR extracellular domain protein; not shown: His tag
The assay can be described thus: SPR, antibody captured on protein A, EGFR.His in flow. As for the experimental part:
The binding kinetics and affinity of candidate antibody to human EGFR.His antigen were determined using surface plasmon resonance (SPR). The purified antibody was flowed through the sensor chips pre-immobilized with protein A, and the antibody was captured by protein A. Then five different concentrations of EGFR.His protein were used as the mobile phase, and the binding time and dissociation time were […], respectively. The binding rate (kon), dissociation rate (koff), and equilibrium constant (kD) were analyzed using Biacore Evaluation Software 2.0 (GE). EC225, an antibody that binds to region III of human EGFR, was selected as a positive control (sequence source https.//go.drugbank.com/drugs/DB00002).

The target in assay [4] is T2, EGFR on SKOV3 and Aspc-1 tumor cells. The assay is described as follows: flow cytometry on Aspc-1 tumor cells, anti-human IgG PE, MFI, curve fit; unit from the concentration axis and paragraph 62; no upper plateau within the range shown [table]. On the procedure: as §2
Assay [5] has as its target T4, Rhesus macaque EGFR Protein, His Tag (Acro, Cat #EGR-C52H1) (rhesus macaque, UniProt P55245 25-645).
T4 construct: extracellular domain; Bought protein; also called Monkey EGFR; not shown: His tag
The assay is described as follows: ELISA, coated antigen 1 ug/mL, antibody 50 nM. On the procedure:
(§3) ELISA was used to identify the binding of VHH-IgG4 antibodies to the extracellular domains of mouse EGFR, monkey EGFR, and human EGFR proteins. The detection steps were as follows: Mouse EGFR Protein, His Tag (Acro, Cat #EGR-M5224) and Rhesus macaque EGFR Protein, His Tag (Acro, Cat #EGR-C52H1) were diluted to 1 μg/mL with phosphate buffer, and 100 μL of each dilution was added to a 96-well ELISA plate and coated overnight at 4° C. The next day, the plates were washed twice with PBST (containing 0.5% TWEEN-20) and then blocked with 3% BSA at 37° C. for 1.5 h, followed by two washes with PBST. VHH-IgG4 antibodies were diluted to 50 nM, and 100 μL of the dilution was added to each well and incubated at 37° C. for 1 h. The plates were then washed three times with PBST, and 100 μL of HRP-labeled goat anti-human IgG Fc antibody (1:10000, Bethyl) was added to each well and incubated at 37° C. for another 40 min. After washing the plates four times with PBST, 100 μL of TMB substrate was added to each well, and the reaction was allowed to proceed for 3-5 min. The reaction was stopped by adding 100 μL of 3N hydrochloric acid per well. After stopping the reaction, the optical density at 450/650 nm was measured using a Tecan microplate reader.

For assay [6], the target named is T5, Mouse EGFR Protein, His Tag (Acro, Cat #EGR-M5224) (mouse, UniProt Q01279 25-647).
T5 construct: extracellular domain; Bought protein; not shown: His tag
The assay is described as follows: ELISA, coated antigen 1 ug/mL, antibody 50 nM. As for the experimental part:
as §3

The target of assay [7] is T6, Region III of EGFR expressed on HEK293T cells (human, UniProt P00533).
T6 construct: also called HEK293T EGFR-III cells; stably transformed cell line 293T overexpressing EGFR III region protein
The assay is described as follows: flow cytometry on HEK293T cells expressing EGFR region III, anti-human IgG PE, MFI, curve fit; unit from the concentration axis and paragraph 62 [table]. On the procedure:
HEK293T cells that express Region III of EGFR (i.e., HEK293T […] cells) were plated in a 96-well plate with 3×10⁵ cells/well, and then HEK293T […] cells were incubated with gradient diluted VHH-IgG4 antibody. After incubation for half an hour, anti-human IgG PE (Jackson Immuno Research, Code: 109-117-008, Lot:145501) as the secondary antibody for detection was added for incubation, and then CytoFLEX flow cytometer was used for detection. The EC50 of the antibody was calculated by curve fitting with Graphprism8.0 software. Isotype 1 in the figure is a negative control, and its amino acid sequence is shown as SEQ ID NO: 2 in CN106046152A.

Assay [8] addresses T2, EGFR on SKOV3 and Aspc-1 tumor cells. The assay is described as follows: flow cytometry on SKOV3 tumor cells, anti-human IgG PE, MFI, curve fit; unit from the concentration axis and paragraph 62; the curve still rises at the highest concentration (MFI about 9700 at about 250 nM) [table]. On the procedure:
as §2

Assay [9] has the same target. The assay can be described thus: flow cytometry on Aspc-1 tumor cells, anti-human IgG PE, MFI, curve fit; unit from the concentration axis and paragraph 62; the curve still rises at the highest concentration (MFI about 9000 at about 250 nM) [table]. As for the experimental part: as §2
The target of assay [10] is T3, human EGFR.His antigen (Acro, Cat …). The assay is described as follows: ELISA: EGFR his tag protein coated at 1 µg/mL, antibody at 50, 5, 0.5, 0.05 nM, HRP goat anti-human IgG Fc, OD450. On the procedure: as §1, with “After washing the plates four times with PBST, 100 μL of TMB substrate was added to each well, and the reaction was allowed to proceed for 3-5 min. The reaction was stopped by adding 100 μL of 3N hydrochloric acid per well.” left out

Assay [11] concerns the target T7, EGFR-D4 (F481-S645, P00533-1 (uniprot)) his tag antigen (human, UniProt P00533 481-645).
T7 construct: range 481-645; also called IV domain protein; EGFR-D4 protein; not shown: His tag
The assay is described as follows: ELISA: EGFR-D4 his tag antigen coated at 0.5 µg/mL, antibody at 2000, 200, 20, 2 nM, HRP goat anti-human IgG Fc, OD450. As for the experimental part: as §1

B1: E006 VHH-IgG4 antibody (antibody, V domains shown, not shown: a dimerising Fc or GST)
VH: EVQLVESGGGLVQPGGSLRLSCTASGFTFDTYTTSWERQAPGKEREMVAVLATTGGKPYYVESVKGRFTISRDASETAVTLQMNNLKPEDTAVYYCKATSRSPVNPHNYSGQGTLVTVSS
B1: the binding result in assay [1] is on record as “no binding (tested: 2000 nM)”. Also, the EC50 was 11 nM in [2], 12 nM in [4] and 0.5 nM in assay [7]. In assay [3], this molecule came in with a Kd of 6.82 nM. The molecule further gave a koff in assay [3] of 0.000255 s⁻¹. Further, the on-rate (kon) in assay [3] is 37400 M⁻¹ s⁻¹. In addition, the OD450 is 3.3 OD450 in assay [5] and 3.13 OD450 in [6].

B2: E001 VHH-IgG4 antibody (antibody, V domains shown, not shown: a dimerising Fc or GST)
VH: EVQLVESGGGLVQPGGSLRLSCTPSGSGFTIQAMTWYRQAPGKQRELVAIIHQGGSTDYSDSVRGRFTISRDNAKTAWYLQMNNLKPEDTAVYYCNVVPPLRVWGQGTQVTVSS
On to B2, for which the binding result in assay [1] was “no binding (tested: 2000 nM)”. For the same molecule, the half-maximal effective concentration (EC50) in assay [8] was determined as 74 nM; in assay [9], 58 nM; in assay [7], 0.32 nM. In [3], this molecule had a Kd of 0.206 nM. Moreover, in [3], the koff stood at 1.2e-05 s⁻¹. The same molecule returned a kon in assay [3] of 57900 M⁻¹ s⁻¹. The OD450 worked out at 3.3 OD450 in [5] and 0.76 OD450 in [6].

B3: E009 VHH-IgG4 antibody (antibody, V domains shown, not shown: a dimerising Fc or GST)
VH: QVQLVESGGGLVQPGGSLRLSCEASGRIDIIFTMGWYRQTPGNEREFVASVTNYNAKYADSVKGRFTISRENTENTAYLQMNSLKPEDTAIYVCHLNYASDYTEYDYYGQGTQVTVSS
On to B3, for which the binding result in assay [1] is recorded as “binds”; in assay [10], “binds”; in assay [11], “no binding (tested: 2000 nM)”. Besides, the OD450 was found to be 3.36 OD450 in assay [5] and 0.08 OD450 in assay [6].
